Reference: publication PMC7833764

Tests used:
[1] = molecular target: human GUCY2C (guanylyl cyclase 2C), recombinant protein (human) (UniProt P25092)
[2] = molecular target: human CD3 epsilon (CD3ε) (Homo sapiens) (UniProt P07766)
Sequence of UniProt P07766 (P07766 23-207): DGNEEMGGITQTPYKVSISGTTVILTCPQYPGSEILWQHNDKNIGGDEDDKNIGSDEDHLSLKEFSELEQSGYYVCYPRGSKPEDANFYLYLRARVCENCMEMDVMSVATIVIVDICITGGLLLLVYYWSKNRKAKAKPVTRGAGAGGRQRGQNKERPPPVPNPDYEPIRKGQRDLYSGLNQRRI

Sequence of UniProt P25092 (P25092 24-1073): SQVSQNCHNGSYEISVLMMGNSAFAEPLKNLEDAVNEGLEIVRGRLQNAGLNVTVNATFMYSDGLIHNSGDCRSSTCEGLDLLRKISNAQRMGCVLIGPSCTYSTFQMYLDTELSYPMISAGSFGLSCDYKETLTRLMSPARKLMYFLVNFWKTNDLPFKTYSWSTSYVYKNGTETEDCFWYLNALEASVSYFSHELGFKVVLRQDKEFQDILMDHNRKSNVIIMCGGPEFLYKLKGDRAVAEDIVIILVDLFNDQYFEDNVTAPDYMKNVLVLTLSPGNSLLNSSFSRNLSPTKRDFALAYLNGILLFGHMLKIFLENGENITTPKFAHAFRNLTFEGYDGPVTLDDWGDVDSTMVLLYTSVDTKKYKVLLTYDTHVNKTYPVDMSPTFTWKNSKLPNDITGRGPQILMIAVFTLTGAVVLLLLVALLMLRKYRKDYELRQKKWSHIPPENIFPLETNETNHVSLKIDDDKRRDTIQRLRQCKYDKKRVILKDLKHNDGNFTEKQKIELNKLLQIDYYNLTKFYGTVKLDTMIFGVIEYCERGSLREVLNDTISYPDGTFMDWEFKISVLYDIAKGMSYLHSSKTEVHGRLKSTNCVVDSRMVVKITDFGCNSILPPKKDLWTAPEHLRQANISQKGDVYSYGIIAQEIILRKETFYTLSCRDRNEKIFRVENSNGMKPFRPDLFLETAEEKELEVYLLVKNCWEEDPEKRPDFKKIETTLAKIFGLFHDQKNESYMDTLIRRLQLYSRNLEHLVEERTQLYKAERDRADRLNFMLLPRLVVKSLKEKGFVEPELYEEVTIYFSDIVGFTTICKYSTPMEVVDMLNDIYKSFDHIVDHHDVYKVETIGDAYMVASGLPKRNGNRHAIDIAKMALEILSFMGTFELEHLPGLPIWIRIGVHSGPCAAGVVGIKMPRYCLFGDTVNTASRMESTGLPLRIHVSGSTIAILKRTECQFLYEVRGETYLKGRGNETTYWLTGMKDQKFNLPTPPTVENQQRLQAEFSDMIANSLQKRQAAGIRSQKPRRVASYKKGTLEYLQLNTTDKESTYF

fold lower affinity than GUCY2C-0247 [1]: 2.5 fold
fold lower affinity than GUCY2C-0247 [2]: 7.2 fold
Substance: PF-07062119, anti-GUCY2C x anti-CD3ε T cell bispecific antibody (diabody-Fc)
